{
  "source": "patent US20040053329A1",
  "about": "(published 2004)",
  "biological_target": "T1, endoglin (CD105) of human endothelial cells (HUVEC and other endothelial cells) (human, UniProt P17813 26-658)",
  "T1 construct": "whole, on cells; In the immunoprecipitation the protein came from a non-denaturing lysate of 35S-methionine-labelled HUVEC; In immunofluorescence and flow cytometry it was on cells; also called endoglin-expressing HUVEC; endoglin-expressing endothelial cells",
  "T1 sequence (looked up)": "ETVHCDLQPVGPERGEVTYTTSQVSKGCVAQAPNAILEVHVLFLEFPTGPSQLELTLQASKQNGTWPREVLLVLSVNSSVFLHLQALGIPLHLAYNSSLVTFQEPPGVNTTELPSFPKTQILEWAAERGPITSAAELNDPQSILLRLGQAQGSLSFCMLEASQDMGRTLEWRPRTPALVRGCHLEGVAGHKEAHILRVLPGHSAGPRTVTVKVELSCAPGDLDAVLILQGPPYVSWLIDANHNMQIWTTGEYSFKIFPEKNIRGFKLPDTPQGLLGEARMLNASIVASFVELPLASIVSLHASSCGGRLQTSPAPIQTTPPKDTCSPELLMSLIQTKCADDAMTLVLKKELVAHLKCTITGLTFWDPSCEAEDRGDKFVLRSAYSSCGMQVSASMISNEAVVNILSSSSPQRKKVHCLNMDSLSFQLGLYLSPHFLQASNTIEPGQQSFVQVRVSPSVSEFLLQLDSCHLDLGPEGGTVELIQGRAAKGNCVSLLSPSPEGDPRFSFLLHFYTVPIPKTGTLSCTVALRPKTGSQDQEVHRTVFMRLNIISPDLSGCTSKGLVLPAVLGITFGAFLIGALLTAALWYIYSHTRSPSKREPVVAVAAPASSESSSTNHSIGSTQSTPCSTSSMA",
  "assay": "immunoprecipitation from non-denaturing lysate of 35S-methionine-labelled HUVEC",
  "protocol": "Endoglin from primary human umbilical cord endothelial cells (HUVEC) was detected by means of immunoprecipitation under non-denaturing conditions. For this purpose, the [³⁵S]-methionine-labelled endothelial cells were lysed with lysing buffer (10 mM Tris-HCl pH 7.5, 150 mM NaCl, 1% sodium deoxycholate, 1% Nonidet P40) for 30 min at 4° C. […] The complexes were washed several times with lysing buffer and finally resuspended in 20 μL SDS-PAGE charge buffer. After separation in the SDS-polyacrylamide gel, the gel was immobilised for 30 min in 30% methanol and 10% acetic acid and subsequently mixed with amplification solution (Amersham-Buchler). The gel was dried and exposed with an x-ray film.",
  "data": [
    {"binder": "scFv C4 (anti-endoglin polypeptide C4 in the form of an scFv fragment) (scFv, not shown: small tags and cut ends, also called polypeptide scFv C4; anti-endoglin-antibody) scFv: AQVQLVQSGAEVKKPGATVKISCKVSGYTFTDYYMHWVQQAPGKGLEWMGLVDPEDGETIYAEKFQGRVTITADTSTDTAYMELSSLRSEDTAVYYCARRTTHGPDPHWGQGTLVTVSSGGGGSGGGGSGGSALDIQLTQSPSSLSASVGDRVTITCRASQSISSYLNWYQRKPGKAPKLLIYAASSLQSGVPSRFSGSGSGTDFTLTISSLQPEDFATYYCQQSYSTRTFGQGTKLEIKR", "values": [
      {"measurement": "binding result", "value": "binds"}
    ]}
  ]
}
